Experimental data from publication PMC8035206.

Biological target: N-mEGFP full length (nucleocapsid) (SARS-CoV-2, UniProt P0DTC9 1-419)
Test: EMSA; 200 nM RNA; N-mEGFP titrated
Conditions: protein: recombinant; tags: C-terminal mEGFP; pET28a(+), Ni-purified (His tag implied); chain copies: 2

B1: 55-nt vRNA (5' UTR segment) (ssRNA)
RNA: AUUAAAGGUUUAUACCUUCCCAGGUAACAAACCAACCAACUUUCGAUCUCUUGUA
  binding result: binds
